Values quoted from earlier work as cited in publication PMC6824834.

Molecular target: Glu165 (UniProt position 165, VVVAYEPVWAI)
Details: substrate-bound, closed (desolvated) active site

## Triosephosphate isomerase (TIM) (Not stated for the quoted values; residue numbering is that of Saccharomyces cerevisiae TIM (yTIM))
  pKa: >6
